Data from the supplement of paper PMC11908140.

B1: library; numbered along this chain (parent)
chain: MRKPRAAVGSGHRKQAASQEGRQKHAKNNSQAKPSACDGLARQPEEVVLQASVSSYHLFRDVAEVTAFRGSLLSWYDQEKRDLPWRRRAEDEMDLDRRAYAVWVSEVMLQQTQVATVINYYTGWMQKWPTLQDLASASLEEVNQLWAGLGYYSRGRRLQEGARKVVEELGGHMPRTAETLQQLLPGVGRYTAGAIASIAFGQATGVVDGNVARVLCRVRAIGADPSSTLVSQQLWGLAQQLVDPARPGDFNQAAMELGATVCTPQRPLCSQCPVESLCRARQRVEQEQLLASGSLSGSPDVEECAPNTGQCHLCLPPSEPWDQTLGVVNFPRKASRKPPREESSATCVLEQPGALGAQILLVQRPNSGLLAGLWEFPSVTWEPSEQLQRKALLQELQRWAGPLPATHLRHLGEVVHTFSHIKLTYQVYGLALEGQTPVTTVPPGARWLTQEEFHTAAVSTAMKKVFRVYQGQQPGTCMGSKRSQVSSPCSRKKPRMGQQVLDNFFRSHISTDAHSLNSAAQ

Variants of: B1
Experiment: 8OG:A repair function score (normalized; synonymous = 0, nonsense = -1) (normalized log-likelihood score); higher = more repair activity (WT-like)
Conditions: with 8OG:A DNA repair reporter (GFP) in HEK-293 MUTYH KO cells
Method in brief: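 GFP+ (repair) and GFP− bins of viable mCherry+ cells were collected at 72 h from MUTYH knockout HEK-293 cells bearing lentiviral MUTYH cDNA NNN codon-scan libraries in 10 pg/ml doxycycline, co-transfected with an 8OG:A GFP repair reporter and mCherry. Tile amplicons were sequenced, and per-tile Rosace fitness scores were normalized to a repair function score anchored on synonymous and nonsense distributions. Synonymous medians were set to 0 and nonsense to -1, with variants under 300 counts per million at the start removed.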
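Note: cells sorted at 72 h after reporter transfection.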

8OG:A repair function score: each site, then its substitutions
V274: D -1.01; W -0.16; M -0.0354; K -1.03; R -0.994; A -0.219; G -0.676; H -0.563; F -0.303; N -0.714; Q -0.544; L -0.0284; E -0.423; Y -0.549; S -0.589; T -0.241; P -1.23; I -0.0406; C -0.176
L277: P -0.383; H -0.0518; F 0.00162; C -0.0293; V -0.0751; Y 0.014; T -0.115; K -0.17; I -0.036; W -0.00135; N -0.0739; S -0.022; D -0.199; M 0.00781; E -0.204; R -0.152; Q -0.0714; A -0.125
S276: G -0.00134; R -0.0136; C -0.133; D 0.00885; I -0.0404; F -0.0215; T 0.0017; H 0.0172; E -0.0386; K 0.0174; A 0.0102; L -0.0125; P -0.0133; V -0.0409; W -0.0968; N -0.00423; Q 0.0194; Y 0.0309; M -0.0454
V261: L -0.0765; W -0.489; M -0.124; G -0.599; T -0.0821; P -0.891; Y -0.342; C -0.11; Q -0.57; K -0.147; A -0.399; H -0.25; D -0.737; I -0.0723; F -0.278; R -0.0976; E -0.804; N -0.379; S -0.503
E275: H 0.015; D -0.113; Q 0.0396; M 0.00516; K 0.00478; A 0.0221; C -0.0803; W -0.0767; V 0.0153; L -0.00764; F 0.0124; S 0.00561; G -0.00445; N -0.00161; Y -0.0195; T 0.0286; R 0.00881; I -0.0114; P -0.152
C262: D -1.2; R -1.05; V -1.26; A -1.38; Y -1.21; N -1.19; P -1.18; G -1; Q -1.27; E -1.28; S -1.38; T -1.19; H -1.1; F -1.14; M -1.06; K -1.3; L -1.26; W -0.941; I -1.12
T260: W -0.207; R -0.0323; Y -0.385; V -0.0429; Q -0.0253; S -0.104
R266: I -0.164; K 0.00702; H 0.00581; D -0.269; P -0.449; N -0.0656; Y -0.102; A -0.0544; M -0.0578; S -0.0823; Q -0.165; C -0.085; V -0.119; L -0.152; G -0.111; E -0.22; F -0.104; T -0.142; W -0.135
C269: A -1.29; F -1.16; L -1.21; Y -1.12; K -1.17; Q -1.19; M -1.18; G -1.26; S -1.28; P -1.04; T -1.06; R -1.15; V -1.27; I -1.26; E -1.16; H -0.96; N -1.31; W -1.4; D -0.992
P273: A -0.171; C -0.28; F -0.844; L -0.946; R -0.526; Y -0.661; M -1.05; K -0.708; W -0.748; G -0.625; H -0.569; N -0.903; S -0.426; D -1.05; T -0.453; V -0.419; E -0.952; I -0.662; Q -0.798
L268: Q -0.0131; T 0.012; W -0.0985; V -0.0404; Y -0.046; S -0.00947; E -0.133; N -0.0234; D 0.0003; P -0.285; R 0.00479; K 0.0167; G -0.0658; A -0.000124; M 0.0171; I -0.0493; F 0.00448; C -0.13
Q265: N -0.0302; V -0.0775; H 0.0203; W -0.0937; T 0.00721; G -0.0557; R 0.00654; M -0.0825; A -0.0137; F -0.022; I -0.0274; P -0.252; C -0.0499; K -0.0319; L -0.0663; D -0.156; E -0.243; Y -0.00929; S -0.0301
Q271: F -0.0282; Y -0.0212; M -0.0166; K 0.0343; T -0.00163; H -0.0231; D -0.0548; A 0.0211; R 0.0206; V 0.0124; G -0.0498; C -0.0175; I -0.0397; W -0.0164; N 0.0195; P -0.311; L -0.00321; E -0.00693; S -0.0229
P267: H -0.87; E -0.836; G -0.225; W -1.06; N -0.863; L -1.03; V -0.195; F -0.919; A -0.131; S -0.361; Y -0.838; K -1.06; C -0.372; R -1.04; I -0.711; Q -0.679; M -0.774; D -1.1; T -0.202
C278: A -1.11; D -1.08; F -1.07; E -0.92; G -1.17; I -1.03; H -1.09
C272: W -1.09; E -1.29; V -1.12; I -1.3; A -1.16; K -1.41; M -1.19; S -1.17; D -1.28; R -1.35; N -1.21; L -1.26; F -1.42; Y -0.982; Q -1.09; P -1.26; T -1.24; G -1.24; H -1.32
T263: P -0.461; W -0.28; N -0.0422; C -0.141; M -0.0448; I -0.0749; L -0.0322; F -0.0981; H -0.124; D -0.24; K -0.017; E -0.267; V -0.0463; A -0.167; S -0.0723; Y -0.113; Q -0.129; G -0.115; R -0.0312
P264: F -0.223; D -0.274; G -0.159; H -0.113; A -0.0364; I -0.1; K -0.048; N -0.0423; S -0.0872; R -0.0983; Q -0.145; T -0.066; Y -0.087; W -0.113; L -0.0962; C -0.102; E -0.25; V -0.0712; M -0.233
S270: E -0.0683; I -0.0239; M -0.0147; A -0.0829; Q 0.028; H 0.0198; L -0.0471; C -0.0715; V -0.0277; T -0.0207; K -0.0187; D -0.0528; W -0.0132; P -0.0287; F -0.0287; Y -0.036; G -0.0285; N -0.0408; R -0.00848
